From patent US20250043302A1, “MUTATED HYDROXYPHENYLPYRUVATE DIOXYGENASE POLYPEPTIDE, AND CODING GENE AND USE THEREOF” (BEIJING DABEINONG BIOTECHNOLOGY CO., LTD., priority 2021, published 2025)

What was measured:
[1] = tested on: Arabidopsis thaliana T1 plants; assay: Topramezone tolerance of transgenic Arabidopsis thaliana T1 plants (spray, bleached leaf area grade, damage score); format: in vivo; conditions: for Classification and statistics of the grade of pesticide damage Grade 0: number of plants at grade 0; for Classification and statistics of the grade of pesticide damage Grade 1: number of plants at grade 1; for Classification and statistics of the grade of pesticide damage Grade 2: number of plants at grade 2; for Classification and statistics of the grade of pesticide damage Grade 3: number of plants at grade 3; for Classification and statistics of the grade of pesticide damage: Grade 0 / Classification and statistics of the grade of pesticide damage: Grade 1 / Classification and statistics of the grade of pesticide damage: Grade 2 / Classification and statistics of the grade of pesticide damage: Grade 3: number of plants; for Grade 0 (classification and statistics of the grade of pesticide damage; number of plants) / Grade 1 (classification and statistics of the grade of pesticide damage; number of plants) / Grade 2 (classification and statistics of the grade of pesticide damage; number of plants) / Grade 3 (classification and statistics of the grade of pesticide damage; number of plants): 16 plants
Method in brief: (§1)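 Damage was assessed by bleaching grade (0 none; 1 <50%; 2 >50%; 3 100% of leaf area) one week after spraying. Sprays on 18-day-old T1 and wild-type plants used field-rate multiples: topramezone 25–200, isoxaflutole 35–280, mesotrione 52.5–420 g ai/ha.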

[2] = tested on: Arabidopsis thaliana T1 plants; assay: Mesotrione tolerance of transgenic Arabidopsis thaliana T1 plants (spray, bleached leaf area grade, damage score); format: in vivo; parameters: Scores: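 damage score 0-100 computed as Σ(N×S)/(T×M)×100 over grades 0-3 with higher meaning more damage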; conditions: for Classification and statistics of the grade of pesticide damage: Grade 0 / Classification and statistics of the grade of pesticide damage: Grade 1 / Classification and statistics of the grade of pesticide damage: Grade 2 / Classification and statistics of the grade of pesticide damage: Grade 3: number of plants
Method in brief: as §1

[3] = Table 10, topramezone 100 g ai/ha (4×)
[4] = Table 10, topramezone 200 g ai/ha (8×)
[5] = topramezone 100 g ai/ha (4×), 7 DAT, Table 1
[6] = topramezone 200 g ai/ha (8×), 7 DAT, Table 1
[7] = topramezone 100 g ai/ha (4x field concentration), Arabidopsis thaliana T1 plants
[8] = topramezone 200 g ai/ha (8x field concentration), Arabidopsis thaliana T1 plants
[9] = mesotrione 210 g ai/ha (two-fold field concentration), 7 DAT, Table 3
[10] = mesotrione 210 g ai/ha, number of plants in grade
[11] = mesotrione 420 g ai/ha (4×), 7 DAT, Table 3
[12] = mesotrione 420 g ai/ha, number of plants in grade

B1: AsHPPD-02: nucleotide sequence encoding Avena sativa wild-type HPPD; vector DBN11727 (nucleic acid)
DNA: ATGCCACCTACTCCAGCTACAGCTACTGGTGCTGCTGCTGCTGCCGTTACTCCTGAGCACGCTGCCAGGTCATTCCCCAGGGTGGTTCGCGTGAACCCCAGATCTGATAGGTTCCCAGTTCTGAGCTTCCACCATGTTGAGCTGTGGTGCGCTGATGCTGCTTCTGCTGCTGGCAGGTTCTCTTTCGCTCTTGGTGCTCCACTCGCTGCTAGATCTGATCTGTCTACAGGAAATAGCGCTCATGCCTCACTCCTGCTTCGCTCAGGTGCTTTGGCCTTCCTCTTCACCGCTCCATATGCTCCCCCACCTCAGGAGGCTGCTACTGCTGCTGCTACAGCCTCCATTCCAAGCTTCTCAGCTGATGCCGCTAGAACCTTCGCTGCTGCTCATGGACTTGCCGTGAGGTCTGTTGGTGTTCGCGTGGCTGATGCTGCTGAGGCTTTCAGAGTTTCCGTTGCCGGCGGAGCTAGGCCAGCTTTCGCTCCTGCTGATTTGGGACATGGTTTCGGCCTGGCTGAGGTTGAGCTTTACGGTGACGTGGTTCTCCGCTTCGTGTCTTACCCAGATGAGACTGACCTGCCTTTCCTTCCCGGCTTCGAGAGAGTTTCCTCTCCTGGTGCCGTGGATTACGGCCTGACAAGGTTCGACCACGTGGTTGGAAACGTTCCCGAGATGGCTCCAGTGATCGATTACATGAAGGGCTTCCTTGGATTCCATGAGTTCGCCGAGTTCACTGCTGAGGACGTGGGAACCACTGAGTCCGGTTTGAACTCTGTGGTTCTCGCCAACAATTCTGAGGCTGTTTTGCTCCCTCTGAATGAGCCTGTGCATGGAACCAAGAGGAGAAGCCAGATTCAAACTTACCTGGAGTACCACGGTGGCCCTGGAGTTCAGCATATCGCCCTTGCTTCTAATGATGTGTTGCGCACACTCAGAGAGATGCGCGCCAGAACCCCCATGGGAGGTTTCGAGTTCATGGCCCCACCACAGGCTAAGTACTACGAGGGCGTTAGAAGGATTGCTGGAGACGTGTTGAGCGAGGAGCAGATCAAGGAGTGCCAAGAGCTGGGTGTTCTTGTGGATAGGGATGACCAGGGCGTTCTGCTTCAAATTTTCACTAAGCCAGTGGGCGACCGCCCTACATTCTTCCTTGAGATGATTCAAAGAATCGGCTGCATGGAGAAGGATGAGGTTGGACAGGAGTACCAAAAGGGCGGATGCGGTGGCTTCGGAAAGGGTAACTTCAGCGAGTTGTTCAAGTCAATCGAGGACTACGAGAAGAGCCTCGAGGTGAAGCAGTCAGTGGTTGCCCAAAAGTCCTGA
modifications: AsHPPD-02 Nucleotide Sequence
notes: vector DBN11727
Resistance evaluation [1, 3]: Non-resistant
Classification and statistics of the grade of pesticide damage Grade 0 [1, 3]: 0
Classification and statistics of the grade of pesticide damage Grade 1 [1, 3]: 0
Classification and statistics of the grade of pesticide damage Grade 2 [1, 3]: 4
Classification and statistics of the grade of pesticide damage Grade 3 [1, 3]: 12
Scores ([1]; Table 10, topramezone 100 g ai/ha (4×), pesticide damage score): 92
Resistance evaluation [1, 4]: Non-resistant
Classification and statistics of the grade of pesticide damage Grade 0 [1, 4]: 0
Classification and statistics of the grade of pesticide damage Grade 1 [1, 4]: 0
Classification and statistics of the grade of pesticide damage Grade 2 [1, 4]: 0
Classification and statistics of the grade of pesticide damage Grade 3 [1, 4]: 16
Scores ([1]; Table 10, topramezone 200 g ai/ha (8×), pesticide damage score): 100
tolerance to topramezone (in words) ([1]; in vivo): no tolerance
Classification and statistics of the grade of pesticide damage: Grade 0 [1, 5]: 0
Classification and statistics of the grade of pesticide damage: Grade 1 [1, 5]: 0
Classification and statistics of the grade of pesticide damage: Grade 2 [1, 5]: 4
Classification and statistics of the grade of pesticide damage: Grade 3 [1, 5]: 12
Classification and statistics of the grade of pesticide damage: Grade 0 [1, 6]: 0
Classification and statistics of the grade of pesticide damage: Grade 1 [1, 6]: 0
Classification and statistics of the grade of pesticide damage: Grade 2 [1, 6]: 0
Classification and statistics of the grade of pesticide damage: Grade 3 [1, 6]: 16
Scores ([1]; pesticide damage score 0-100, topramezone 100 g ai/ha (4×), 7 DAT, Table 1): 92
Scores ([1]; pesticide damage score 0-100, topramezone 200 g ai/ha (8×), 7 DAT, Table 1): 100
Resistance evaluation [1, 7]: Non-resistant
Scores [1, 7]: 92
Grade 0 (classification and statistics of the grade of pesticide damage; number of plants) [1, 7]: 0
Grade 1 (classification and statistics of the grade of pesticide damage; number of plants) [1, 7]: 0
Grade 2 (classification and statistics of the grade of pesticide damage; number of plants) [1, 7]: 4
Grade 3 (classification and statistics of the grade of pesticide damage; number of plants) [1, 7]: 12
Resistance evaluation [1, 5]: non-resistant (non-resistant plants (scores 68-100))
Resistance evaluation [1, 8]: Non-resistant
Scores [1, 8]: 100
Grade 0 (classification and statistics of the grade of pesticide damage; number of plants) [1, 8]: 0
Grade 1 (classification and statistics of the grade of pesticide damage; number of plants) [1, 8]: 0
Grade 2 (classification and statistics of the grade of pesticide damage; number of plants) [1, 8]: 0
Grade 3 (classification and statistics of the grade of pesticide damage; number of plants) [1, 8]: 16
Resistance evaluation [1, 6]: non-resistant (non-resistant plants (scores 68-100))
Resistance evaluation ([2]; Table 9, mesotrione 210 g ai/ha (2×)): Non-resistant
Classification and statistics of the grade of pesticide damage Grade 0 ([2]; Table 9, mesotrione 210 g ai/ha (2×), number of plants at grade 0): 0
Classification and statistics of the grade of pesticide damage Grade 1 ([2]; Table 9, mesotrione 210 g ai/ha (2×), number of plants at grade 1): 0
Classification and statistics of the grade of pesticide damage Grade 2 ([2]; Table 9, mesotrione 210 g ai/ha (2×), number of plants at grade 2): 0
Classification and statistics of the grade of pesticide damage Grade 3 ([2]; Table 9, mesotrione 210 g ai/ha (2×), number of plants at grade 3): 16
Scores ([2]; Table 9, mesotrione 210 g ai/ha (2×), pesticide damage score): 100
Resistance evaluation ([2]; Table 9, mesotrione 420 g ai/ha (4×)): Non-resistant
Classification and statistics of the grade of pesticide damage Grade 0 ([2]; Table 9, mesotrione 420 g ai/ha (4×), number of plants at grade 0): 0
Classification and statistics of the grade of pesticide damage Grade 1 ([2]; Table 9, mesotrione 420 g ai/ha (4×), number of plants at grade 1): 0
Classification and statistics of the grade of pesticide damage Grade 2 ([2]; Table 9, mesotrione 420 g ai/ha (4×), number of plants at grade 2): 0
Classification and statistics of the grade of pesticide damage Grade 3 ([2]; Table 9, mesotrione 420 g ai/ha (4×), number of plants at grade 3): 16
Scores ([2]; Table 9, mesotrione 420 g ai/ha (4×), pesticide damage score): 100
Resistance evaluation ([2]; Table 12, mesotrione 210 g ai/ha (2×)): Non-resistant
Classification and statistics of the grade of pesticide damage Grade 0 ([2]; Table 12, mesotrione 210 g ai/ha (2×), number of plants at grade 0): 0
Classification and statistics of the grade of pesticide damage Grade 1 ([2]; Table 12, mesotrione 210 g ai/ha (2×), number of plants at grade 1): 0
Classification and statistics of the grade of pesticide damage Grade 2 ([2]; Table 12, mesotrione 210 g ai/ha (2×), number of plants at grade 2): 0
Classification and statistics of the grade of pesticide damage Grade 3 ([2]; Table 12, mesotrione 210 g ai/ha (2×), number of plants at grade 3): 16
Scores ([2]; Table 12, mesotrione 210 g ai/ha (2×), pesticide damage score): 100
Resistance evaluation ([2]; Table 12, mesotrione 420 g ai/ha (4×)): Non-resistant
Classification and statistics of the grade of pesticide damage Grade 0 ([2]; Table 12, mesotrione 420 g ai/ha (4×), number of plants at grade 0): 0
Classification and statistics of the grade of pesticide damage Grade 1 ([2]; Table 12, mesotrione 420 g ai/ha (4×), number of plants at grade 1): 0
Classification and statistics of the grade of pesticide damage Grade 2 ([2]; Table 12, mesotrione 420 g ai/ha (4×), number of plants at grade 2): 0
Classification and statistics of the grade of pesticide damage Grade 3 ([2]; Table 12, mesotrione 420 g ai/ha (4×), number of plants at grade 3): 16
Scores ([2]; Table 12, mesotrione 420 g ai/ha (4×), pesticide damage score): 100
tolerance to mesotrione (in words) ([2]; in vivo): no tolerance
Resistance evaluation ([2]; mesotrione 210 g ai/ha): Non-resistant
Scores ([2]; mesotrione 210 g ai/ha): 100
Resistance evaluation [2, 9]: non-resistant (non-resistant plants (scores 68-100))
Classification and statistics of the grade of pesticide damage Grade 0 [2, 10]: 0
Classification and statistics of the grade of pesticide damage Grade 1 [2, 10]: 0
Classification and statistics of the grade of pesticide damage Grade 2 [2, 10]: 0
Classification and statistics of the grade of pesticide damage Grade 3 [2, 10]: 16
Resistance evaluation ([2]; mesotrione 420 g ai/ha): Non-resistant
Scores ([2]; mesotrione 420 g ai/ha): 100
Resistance evaluation [2, 11]: non-resistant (non-resistant plants (scores 68-100))
Classification and statistics of the grade of pesticide damage Grade 0 [2, 12]: 0
Classification and statistics of the grade of pesticide damage Grade 1 [2, 12]: 0
Classification and statistics of the grade of pesticide damage Grade 2 [2, 12]: 0
Classification and statistics of the grade of pesticide damage Grade 3 [2, 12]: 16
Classification and statistics of the grade of pesticide damage: Grade 0 [2, 9]: 0
Classification and statistics of the grade of pesticide damage: Grade 1 [2, 9]: 0
Classification and statistics of the grade of pesticide damage: Grade 2 [2, 9]: 0
Classification and statistics of the grade of pesticide damage: Grade 3 [2, 9]: 16
Classification and statistics of the grade of pesticide damage: Grade 0 [2, 11]: 0
Classification and statistics of the grade of pesticide damage: Grade 1 [2, 11]: 0
Classification and statistics of the grade of pesticide damage: Grade 2 [2, 11]: 0
Classification and statistics of the grade of pesticide damage: Grade 3 [2, 11]: 16
Scores ([2]; pesticide damage score 0-100, mesotrione 210 g ai/ha (two-fold field concentration), 7 DAT, Table 3): 100
Scores ([2]; pesticide damage score 0-100, mesotrione 420 g ai/ha (4×), 7 DAT, Table 3): 100
